Test: yeast display, Sf9 membrane polyspecificity reagent, FACS + sequencing; frameworks hold sequencing errors
Method in brief: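 Galactose-induced (36–48 hours) yeast carrying a synthetic nanobody display library were exposed to 10% biotinylated, detergent-solubilized Sf9 membrane reagent at 4 °C for 1 hour. FACS followed streptavidin microbead enrichment, using low and high (top ~1%) gates for expression (anti-HA) and reagent binding (streptavidin). Colony PCR, MiSeq 2 × 250 sequencing and CDR-length filtering followed. Labels for polyreactivity reflect the gate of origin.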

| Sequence | polyreactivity (PSR sort gate) |
| --- | --- |
| QVQLVESGGGLVQAGGSLRLSCAASGRIFFTYAMGWSRQAPGKERELVAAISWSGGGTYYADSVKGRFTISRDNAKNTVYLQMNSLKPEDTAVYYCAADNTILFDYWGQGTQVTVSS | low polyreactivity |
| QVQLVESGGGLVQAGGSLRLSCAASGRIFFVNAMGWYRQAPGKERELVAAISRGGTTYYADSVKGRFTISRDNAKNTVYLQMNSLKPEDTAVYYCNVAYTPSFYRYDYWGQGTQVTVSS | low polyreactivity |
| QVQLVESGGGLVQAGGSLRLSCAASGRIFFVNAMGWYRQAPGKERELVAAISSGGSTNYADSVKGRFTISRDNAKNTVYLQMNSLKPEDTAVYYCASSHYRYGTQGYDYWGQGTQVTVSS | low polyreactivity |
| QVQLVESGGGLVQAGGSLRLSCAASGRIFFVYAMGWYRQAPGKERELVAAITSSGGGTYYADSVKGRFTISRDNAKNTVYLQMNSLKPEDTAVYYCATRYPYRPGYEYWGQGTQVTVSS | low polyreactivity |
| QVQLVESGGGLVQAGGSLRLSCAASGRIFFVYAMGWYRQAPGKERELVAGIRSSGGSTYYADSVKGRFTISRDNAKKTVYLQMNSLKPEDTAVYYCAARRVGYPSPYSTYGMYYWGQGTQVTVSS | high polyreactivity |
| QVQLVESGGGLVQAGGSLRLSCAASGRIFFVYAMGWYRQAPGKERELVAGIRSSGGSTYYADSVKGRFTISRDNAKNTVYLQMNSLKPEDTAVYYCAARRVGYPSPYSTYGMYYWGQGTQVTVSS | high polyreactivity |
| QVQLVESGGGLVQAGGSLRLSCAASGRIFFYNDMGCYRQAPGKERELVASISSGTSTYYADSVKGRFTISRDNAKNTVYLQMNSLKPEDTAVYYCATGRPWHYSSATYDYWGQGTQVTVSS | low polyreactivity |
| QVQLVESGGGLVQAGGSLRLSCAASGRIFFYNGMGWYRQAPGKERELVAAINRSGGSTYYADSVKGRFTISRDNAKNTVYLQMNSLKPVDTAVYYCNAASFTVPMDFWGQGTQVTVSS | low polyreactivity |
| QVQLVESGGGLVQAGGSLRLSCAASGRIFFYNTKGWYRQAPGKERELVAVISSSDGSTYADSVKGRFTISRDNAKNTVYLQMNSLKPEDTAVYYCNAGWTRYVPYVRMDYWGHGTQVTVSS | high polyreactivity |
| QVQLVESGGGLVQAGGSLRLSCAASGRIFFYYAMGWYRQAPGKERELVAAISSGGGSTYYADSVKGRFTISRDNAKNTVYLQMNSLKPEDTAVYYCAARTYRRRYLGWSQYVGPYDYWGQVTQVTVSS | high polyreactivity |
| QVQLVESGGGLVQAGGSLRLSCAASGRIFGAYAKGWYRQAPGTERELVAAISGSGGSTSYADSVKGRFTISRDNAKNTVYLQMNSLKPEDTAVYYCNAVSYVDIWDDRRYYYWVQGTQVTVSS | low polyreactivity |
| QVQLVESGGGLVQAGGSLRLSCAASGRIFGAYAMGWYRQAPGKERELVAAITQSGGSTFYADSVKGRFTISRDNAKNTVYLQMNSLKPEDTAVYYWGQGTQVTVSS | low polyreactivity |
| QVQLVESGGGLVQAGGSLRLSCAASGRIFGAYAMGWYRQAPWKERELVAAITSRGGNTYYADSVKGRFTISRDNAKNTVYLQMNSLKPEDTAVYYCAARHDKRRQYYVGQSAFDYWGQGTQVTVSS | low polyreactivity |
| QVQLVESGGGLVQAGGSLRLSCAASGRIFGAYTMGWYRQAPGKEREFVAAITQSGGSTYYADSVKGRFTISRDNAKNTVYLQMNSLKPEDTAVYYCAATRYVLVGWRYAVWYDYWGQGTQVTVSS | high polyreactivity |
| QVQLVESGGGLVQAGGSLRLSCAASGRIFGDNAMGWSRQAPGKEWELVAAITVNAGSTHYAASVKGRFTISRDNAKNTVYLQMNSLKPEDTAVYYCAKQTAPVTGVGPYFYWGQGTQVTVSS | low polyreactivity |
| QVQLVESGGGLVQAGGSLRLSCAASGRIFGDYAMGWYRQAPGKERELVADITWSGGSTYYADSVKGRFTISRDNAKNTVYLQMNSLKPEDTAVYYCNADYDGGYYGDLSLYDYWGQGSQVTVSS | low polyreactivity |
| QVQLVESGGGLVQAGGSLRLSCAASGRIFGDYGMGWYRQAPGKERELVAAITDRGGTTYYADSVKGRFTISRDNAKNTVFLQMNSLKPEDTAVYYCNARQSDIFDYDYWGKGTQVTVSS | low polyreactivity |
| QVQLVESGGGLVQAGGSLRLSCAASGRIFGENALGWYRQAPGKEREFVAVISISDASTYYADSVKGRFTISRDNAKNTVYLQMISLKPEDTAVYYCAAELTDFLYVASDYWGQGTQVTVSS | low polyreactivity |
| QVQLVESGGGLVQAGGSLRLSCAASGRIFGENAMGWYRQAPGKERELVAAITWSGTSTYYADSVKGRFTISRDNAKNTVYLQMNSLKPEDTAVDYCAASATLFSSRGKRYYWGQGTQVTVSS | low polyreactivity |
| QVQLVESGGGLVQAGGSLRLSCAASGRIFGEYAMGWYRQAPGKERELVAAISGGGSTYYADSVKGRFTISRDNAKNTVYLQMNSLKPEETAVYYCAVYSVYHEYDYWGHGTQVTVSS | low polyreactivity |
| QVQLVESGGGLVQAGGSLRLSCAASGRIFGFYAMGWSRQAPGKERELVPGITGSGDGTYADSVKGRFTISRDNAKNTVYLQMNSLKPEDTAVYYCAADYAVGKHWRYGTYRGHYWGQGTQVTVSS | low polyreactivity |
| QVQLVESGGGLVQAGGSLRLSCAASGRIFGGNAMGWYRPAPGKERELVAAISKRGGSTYYADSVKGRFTISRDNAKNTVYLQMNSLKPEDSAVYYCAATAYADQGLDYGYWGQGTQVTVSS | high polyreactivity |

| Sequence | polyreactivity (PSR sort gate) |
| --- | --- |
| QVQLVESGGGLVQAGGSLRLSCAASGRIFGGNAMGWYRQAPGKERELVAAISRNGGRTYYADSVKGRFTISRDNEKNTVYLQKNSLKPEDTAFYYCNAGYKEPHYYYWGQGTQVTVSS | high polyreactivity |
| QVQLVESGGGLVQAGGSLRLSCAASGRIFGGNAMGWYRQAPGKERELVAAITTRGGSTYADSVKGRFTISRDNAKNTVYLQMNSLKPEDTAVYYCNKRYVIRRRGYDYWGQGTQVTVSS | low polyreactivity |
| QVQLVESGGGLVQAGGSLRLSCAASGRIFGGNTMGWYRQAPGKERELVAAITSGGSTTYADSVKGRFTISRDNAKNTVYLHMNSLKPEDSEVYYCAARYVYPHQWTPYIRPYDYWGQGTQVTVSS | low polyreactivity |
| QVQLVESGGGLVQAGGSLRLSCAASGRIFGGNVMGWNRQATWKERELVAFITRGTRTNYADSVKGRFTISRDNAKNTVYLQMNSLKPEDNAVFYCAADSRNSRQHTSYNSLNYWGQGTQVTVSS | high polyreactivity |
| QVQLVESGGGLVQAGGSLRLSCAASGRIFGGYAMGWYRQAPGKERELVAAISSRGGSTYYADSVKGRFTISRDNAKNTVYLQMNSLNPEDTAVYYCARTKYGRYRYGEYDYWGQGTQVTVSS | high polyreactivity |
| QVQLVESGGGLVQAGGSLRLSCAASGRIFGGYAMGWYRQAPGKERELVAAISWRGGTTYYADSVKGRFTISRDNAKNTVYLQMNSLKQEDTAVYYCNADVVRYRHWHRGDYWGQGTQVTVSS | low polyreactivity |
| QVQLVESGGGLVQAGGSLRLSCAASGRIFGGYAMGWYRQAPGKERELVAAITSAGGTNYADSVKGRFTISRDNAKNTVYLQMNSLKPEDTAVYYCAALRDRDITVYYDTGRMYYWGQGTQVTVSS | low polyreactivity |
| QVQLVESGGGLVQAGGSLRLSCAASGRIFGGYAMGWYRQAPGKERELVATITANGGRTRYADSVKGRFTISRDNAKNTVYLQMNSLKPEDTAVYYCARVYYSSSGYGYWGQGTQVTVSS | high polyreactivity |
| QVQLVESGGGLVQAGGSLRLSCAASGRIFGGYAMGWYRQAPGKERELVAVITDGGSTNYADSVKGRFTISRDNAKNTVYLQMNSLKPEDTAVYYCAADDRIYPRGYDKMDYWGQGTQVTVSS | low polyreactivity |
| QVQLVESGGGLVQAGGSLRLSCAASGRIFGGYTMGSYRQAPGKERELVAAITRSDGSTTYADSVKGRFTISRDNAKNTVSLQMNSMKPEDTAVYYCAAPRASGYYWGQCTQVTVSS | high polyreactivity |
| QVQLVESGGGLVQAGGSLRLSCAASGRIFGGYTMGWYRQAPGKEREFVATISRSSGSTYYADSVKGRFTISRDNAKNTVYLQMNSLKPEDTAVYYCAAVYLYATGYDYWGQGTQVTVSS | high polyreactivity |
| QVQLVESGGGLVQAGGSLRLSCAASGRIFGGYTMGWYRQAPGNERELVAAINSGGSTYYADSVKGRFTISRDNAKITVYLQMNSLKPEDTAVYYCAKVRSYFGKYGYGYWGQGTQVTVSS | high polyreactivity |
| QVQLVESGGGLVQAGGSLRLSCAASGRIFGGYVMGWYRQAPGKERELVAAISRRGGSTYYADSVKGRFTISRDNAKNTVYLQMNSLKPEDTAVYYCNVASFSYSYKFDYWGQGTQVTVSS | high polyreactivity |
| QVQLVESGGGLVQAGGSLRLSCAASGRIFGHYAMGWYRQAPGKETELVASISWRGGRTYYADSVKGRFTISRDNAKNTVYLQMNSLKPEDTAVYYCAARVNYKPYADYYYWGQGTQVTVSS | high polyreactivity |
| QVQLVESGGGLVQAGGSLRLSCAASGRIFGINARGWYRPAPGKERELVAAINWSGGSTYYADSVKGRFTISRDNAKNTVYLHMNSLKPEDTAVYYCAADFYRRYYRYGYWGQGTQVTVSS | high polyreactivity |
| QVQLVESGGGLVQAGGSLRLSCAASGRIFGINVMGWYRQAPGKERELVARITGRGGRTYYADSVKGRFTISRDNAKNTVYLQMNSLKPEDTAVYYCAADARYEAYDYWGQGTQVTVSS | high polyreactivity |
| QVQLVESGGGLVQAGGSLRLSCAASGRIFGIYAMGWYRQAPGKERELVASITGSSGSTNYADSVKGRFTISRDNAKNTVYLQMNSLKPEDTAVYYCAADIPSYYWWRAYDYWGQGTQVTVSS | low polyreactivity |
| QVQLVESGGGLVQAGGSLRLSCAASGRIFGKNAMGWYRQAPGKERELVAAIRGNGGSTYYADSVKGRFTISRDNAKNTVYLQFNSLKPEDTAVYYCAARASAYFGRYYLYDYWGQGTQVTVSS | high polyreactivity |
| QVQLVESGGGLVQAGGSLRLSCAASGRIFGKYAMGWYRQAPGKERELVAAIRITGGSTYYADSVKGRFTISRDNAKNTVYLEMNSLKPEDTAVYYCAAVYLKTYYWGQGTQVTVSS | high polyreactivity |
| QVQLVESGGGLVQAGGSLRLSCAASGRIFGLYAMGWYRQAPGKERELVAAITRGGRTNYADSVKGRFTISRDNAKNTVYLQMNSLKPEDTAVYYCAADYRYTRGRRDYWGQGTQVTVSS | high polyreactivity |
| QVQLVESGGGLVQAGGSLRLSCAASGRIFGLYAMGWYRQATGKERELVAAISSSGGRTYYADSVKGRFTISRDNAKNTVYLQMNSLKPEDTAVYYCAAVYYYRRDGNGYWGQGTQVTVSS | high polyreactivity |

Source: the nanobody polyreactivity screen of Harvey et al. (2022)
